In the test the target is Skp1-FBXW7 complex (human FBXW7 residues 263-707 with truncated Skp1) (human) (UniProt P63208). As to the kind of experiment: isothermal titration calorimetry, Skp1-FBXW7, 25 °C. On the technique in general: In ITC the heat of successive injections is recorded.

What is called Kd is the equilibrium constant for the complex coming apart. The low end stands for a tighter complex, the high end for a looser complex.

Chain of Skp1-FBXW7 complex (human FBXW7 residues 263-707 with truncated Skp1) (human) (chain, as listed by the source limits assumed, chain 1 of 2): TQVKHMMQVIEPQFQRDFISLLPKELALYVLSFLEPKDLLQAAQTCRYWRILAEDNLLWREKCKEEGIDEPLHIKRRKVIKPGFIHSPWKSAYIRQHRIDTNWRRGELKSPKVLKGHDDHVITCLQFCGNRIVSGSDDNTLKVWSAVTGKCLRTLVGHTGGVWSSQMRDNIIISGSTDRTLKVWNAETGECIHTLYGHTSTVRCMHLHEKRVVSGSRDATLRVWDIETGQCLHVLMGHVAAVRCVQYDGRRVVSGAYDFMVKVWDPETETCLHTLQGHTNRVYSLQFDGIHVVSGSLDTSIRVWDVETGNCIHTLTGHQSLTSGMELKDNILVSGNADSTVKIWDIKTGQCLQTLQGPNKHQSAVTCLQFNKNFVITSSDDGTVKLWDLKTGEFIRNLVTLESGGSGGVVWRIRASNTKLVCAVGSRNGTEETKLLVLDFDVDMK
Chain of Skp1-FBXW7 complex (human FBXW7 residues 263-707 with truncated Skp1) (human) (P63208 whole entry, chain 2 of 2, the tested form may be a part): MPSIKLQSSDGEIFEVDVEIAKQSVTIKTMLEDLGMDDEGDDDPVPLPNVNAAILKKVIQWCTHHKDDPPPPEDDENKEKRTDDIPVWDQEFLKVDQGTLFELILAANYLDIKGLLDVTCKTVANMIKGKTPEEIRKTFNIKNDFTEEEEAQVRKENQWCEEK

Turning to “doubly-phosphorylated test peptide VPPpTPPGpSH”, the Kd worked out at 1000 nM.

These data come from patent publication US9981005.
